A short description of one data set: in vivo. The following applies: female, athymic nude-Foxn1^nu/Foxn1^+, mouse, iv, 200 pmol, total radioactivity. The method, then:
(§1) Quantification of the total body distribution of ^177Lu-7 and ^68Ga-7 was performed in Jurkat xenografted mice after intravenous injection of 100 μL, 200 pmol, with […], respectively (n = 5). The mice were sacrificed at 1 h p.i. ^177Lu-7 and ^68Ga-7 accumulated mainly in the kidneys (83.1 ± 25.5 and 75.6 ± 30.3%IA/g, respectively, p = 0.59), liver (5.19 ± 1.08 and 4.08 ± 1.05%IA/g, respectively, p = 0.07) and tumor (2.25 ± 0.43 and 2.24 ± 0.57%IA/g, respectively, p = 0.97), as already seen in the SPECT/CT and PET/CT images (Figures 6 and 7). Uptake in the tumor was lower than for the kidneys and liver but higher as in all other tissues investigated. […] The uptake seen in the liver might be attributed, at least partially, to the fact that CXCR4 is constitutively expressed in the sinusoidal endothelial cells of the murine liver[38] or could be related to another yet-unknown mechanism previously reported for other CXCR4-targeting probes.[11],[39] Regretfully, there are no direct measurements available for the affinity of ^177Lu-7 with the murine CXCR4 (mCXCR4). This is relevant for assessing its total body distribution. However, we have shown that EPI-X4 and EPI-X4 derivatives are active in mouse models of inflammatory diseases[22],[25] and cancer.[40] More specifically, EPI-X4 derivatives such as JM#21 reduced immune cell influx in lungs of mice suffering from allergic asthma or reduced skin inflammation in a murine model of atopic dermatitis upon topical administration. […] Thus, we speculate that the DOTA conjugate of JM#173 (ligand-7) also cross-reacts to the mCXCR4. […] Last, but not the least, the uptake in the kidneys was predominant, and given the highly hydrophilic character of ^177Lu-7, is attributed, at least partially, to its excretion via this path.
(§2) The experimental protocol involving animals was approved by the Veterinary Office (Department of Health) of the Cantonal Basel-Stadt (Approval No. 30515) in accordance with the Swiss regulations for animal treatment. Female athymic nude-Foxn1^nu/Foxn1^+ mice (Envigo, The Netherlands), 4–6 weeks old, were injected subcutaneously with 10^7 Jurkat cells in a 200 μL (1:1) mixture of PBS and Matrigel (CorningMatrigelMembrane matrix, Fischer Scientific, Germany) on the right shoulder. The tumors were allowed to grow for 3–4 weeks before commencement of the experiments.
(§3) Quantitative biodistribution studies of ^177Lu-7 (100 μL, 200 pmol, 0.8–1 MBq) and ^68Ga-7 (100 μL, 200 pmol, 2–3 MBq) were performed after intravenous injection of the radioligand via the tail vein on Jurkat xenografts. […] 1 h after injection of the radioligand, mice were sacrificed, organs of interest and blood were collected, rinsed of excess blood, blotted dry, weighed, and counted in a γ-counter. The samples were counted against a suitable diluted aliquot of the injected solution as the standard and the results are expressed as percentage injected activity per gram of tissue (%IA/g). Statistical analysis between selected organs was performed by Welch’s t-test and p values <0.05 were considered statistically significant.

A further data set deals with Jurkat xenografts. In words: in vivo. As to conditions: female, athymic nude-Foxn1^nu/Foxn1^+, mouse, iv, 200 pmol, 1 h. As to the method: as §1, §2, §3

Square brackets hold non-standard residues; d marks the D form. Peptide text beside a SMILES is read from it. * marks the point of attachment. DOTA = O=C(O)CN1CCN(CC(=O)O)CCN(CC(=O)*)CCN(CC(=O)O)CC1

With `CC[C@@H](C)[C@@H](N)C(=O)N[C@@H](CC(C)C)C(=O)N[C@@H](CCCNC(=N)N)C(=O)N[C@@H](Cc1c[nH]c2ccccc12)C(=O)N[C@@H](CO)C(=O)N[C@@H](CCCNC(=N)N)C(=O)N[C@@H](CCCCN)C(=O)N[C@@H](CCCCNC(=O)CN1CCN(CC(=O)O)CCN(CC(=O)O)CCN(CC(=O)O)CC1)C(N)=O` [^177Lu-7, metal not drawn] (H-[dI]LRWSRKK(DOTA)-NH2; N-terminus assumed), the tissue uptake at 1 h in the data set “in vivo” (uptake in blood) turned out to be 0.42 ± 0.12 %ID/g; in “in vivo” (uptake in femur), 1.06 ± 0.28 %ID/g; in the data set “in vivo” (uptake in heart), 0.21 ± 0.05 %ID/g; in the data set “in vivo” (uptake in intestine), 0.37 ± 0.1 %ID/g; in “in vivo” (uptake in kidney), 83.1 ± 25.5 %ID/g; in the data set “in vivo” (uptake in liver), 5.19 ± 1.08 %ID/g. Also, the tissue uptake at 1 h in “in vivo” (uptake in muscle) came to 0.27 ± 0.14 %ID/g; in the data set “in vivo” (uptake in pancreas) it was 0.14 ± 0.02 %ID/g; in “in vivo” (uptake in spleen), 0.81 ± 0.16 %ID/g; in the data set “in vivo” (uptake in stomach), 0.3 ± 0.06 %ID/g; in “in vivo” (uptake in tumor), 2.25 ± 0.43 %ID/g. Further, the uptake in adrenal with Jurkat xenografts worked out at 1.09 ± 0.42 % IA/g.

These data come from publication PMC10350915, “Development of a New Class of CXCR4-Targeting Radioligands Based on the Endogenous Antagonist EPI-X4 for Oncological Applications” (Journal of Medicinal Chemistry, 2023).
